In patent publication US20220073920:
Like-named read-outs stand apart in the source and are kept apart here.

Columns and labels:
[1] = tested on: Human adenovirus type 2 whole virion (HAdV-2) (Human adenovirus 2); settings: ELASA; DPBS + 3 mM MgCl2 + 20 mM NaCl (printed NaCl2), pH 7.4, room temperature; n=6
[2] = tested on: Human adenovirus type 2 whole virion (HAdV-2) (Human adenovirus 2); settings: ELASA; DPBS + 3 mM MgCl2 + 20 mM NaCl (printed NaCl2), pH 7.4, room temperature; n=7

Sequence | Kd [1] | Kd [2]
GTGCCAGCTATGCCATTGGGGGACAATATCGCAGTGCATCTTCCTCTAGCGTCTATCTCTGCTGC [aptamer 10] | 3.6 nM | 
GTGCCAGCTATGCCATTGGGCGGGTCGTCCAATTCGAGAGGTCCCCTAGCGTCTATCTCTGCTGC [aptamer 20] |  | 75.9 nM
